Residue numbers refer to the chain shown, from its start. In names and notes the source's numbering stands.

Broadly, the Kd is the constant that tells how readily two partners part at equilibrium. Higher therefore signals weaker binding.

Common to all, as to settings: both partners purified
One test deals with T1, e5-FtsB_(25–103) (E. coli, UniProt P0A6S5 25-103).
T1 chain: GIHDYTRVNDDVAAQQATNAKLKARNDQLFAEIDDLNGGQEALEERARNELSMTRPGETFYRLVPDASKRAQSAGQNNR
The experiment in a line: SEC; analytical gel filtration, Superdex 200 10/300 GL, buffer B (20 mM Tris-HCl pH 8.0, 200 mM NaCl), 0.5 mL/min; high concentrations (101–370 μM); apparent Stokes radius compared with radii calculated from models.

Test [1] deals with T2, FtsQ_(50–276) (E. coli, UniProt P06136 50-276).
T2 construct: pET21a; also called periplasmic domain of FtsQ; WT FtsQ; source: for the complexes purified together with its partners from mixed cell pellets
T2 sequence (P06136 50-276): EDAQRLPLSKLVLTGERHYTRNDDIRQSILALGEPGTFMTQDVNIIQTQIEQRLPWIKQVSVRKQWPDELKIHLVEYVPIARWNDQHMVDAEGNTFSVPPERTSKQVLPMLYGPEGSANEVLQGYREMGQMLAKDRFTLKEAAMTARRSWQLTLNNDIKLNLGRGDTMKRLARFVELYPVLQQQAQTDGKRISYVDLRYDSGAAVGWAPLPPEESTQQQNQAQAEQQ
The test is described as above.

The target in test [2] is T2, FtsQ_(50–276). Put plainly: BLI; BLItz; GST-fused FtsB proteins or GST-e5-FtsB/k5-FtsL complexes immobilised on AR2G biosensor by amine coupling; FtsQ_(50–276) (WT or Y248A) in solution, 0.1–80 μM; running buffer 20 mM Tris-HCl pH 8.0, 200 mM NaCl; equilibrium analysis of points at 100 s. (In general: Biolayer interferometry detects binding as a change in optical thickness at a sensor tip.)

B1: k5-FtsL_(64–121) (domain or fragment)
chain: TAQREQLVLERDALDIEWRNLILEENALGDHSRVERIATEKLQMQHVDPSQENIVVQK
Turning to B1, in the test with e5-FtsB_(25–103), the “stoichiometry N” value was 1 FtsB:FtsL ratio (2:2).

B2: FtsB_(25–103) L46P (domain or fragment, E. coli, UniProt P0A6S5 25-103, looked up)
chain: T1 chain with L22P
notes: also called FtsQB L46P mutant
Consider B2, for which the binding result with FtsQ_(50–276) [1] is given as “binds”.

B3: GST-fused FtsB_(25–103) (domain or fragment, E. coli, UniProt P0A6S5 25-103, looked up)
chain: T1 chain
notes: pGST2; source: E. coli BL21 (DE3), purified (glutathione-Sepharose, gel filtration); not shown: GST, N-terminal, kept
In the case of B3, in the test with FtsQ_(50–276) [2], the dissociation constant Kd is 670 nM. This counts as sub-micromolar.

B4: GST-fused FtsB_(61–103) (domain or fragment, E. coli, UniProt P0A6S5 61-103, looked up)
chain: NGGQEALEERARNELSMTRPGETFYRLVPDASKRAQSAGQNNR
notes: as for B3
Turning to B4, the Kd with FtsQ_(50–276) [2] stood at 900 nM. The Kd values of the last two molecules are within 1.5-fold of each other.

The values are drawn from publication PMC6305486, “Structural Insights into the FtsQ/FtsB/FtsL Complex, a Key Component of the Divisome” (Scientific Reports, 2018).
